Test results: US20260167739A1 (PHANES THERAPEUTICS, published 2026)
Changes are numbered by the printed parent chain.

T1: human 5T4 (32-355) tagged with poly-his at the C-terminus (ACROBiosystems, CAT #TPG-H52E5) (human, UniProt Q13641 32-355)
T1 construct: range 32-355; Bought protein; also called recombinant human 5T4; recombinant 5T4 Ser32-Ser355; not shown: C-terminal poly-his tag
T1 sequence (looked up): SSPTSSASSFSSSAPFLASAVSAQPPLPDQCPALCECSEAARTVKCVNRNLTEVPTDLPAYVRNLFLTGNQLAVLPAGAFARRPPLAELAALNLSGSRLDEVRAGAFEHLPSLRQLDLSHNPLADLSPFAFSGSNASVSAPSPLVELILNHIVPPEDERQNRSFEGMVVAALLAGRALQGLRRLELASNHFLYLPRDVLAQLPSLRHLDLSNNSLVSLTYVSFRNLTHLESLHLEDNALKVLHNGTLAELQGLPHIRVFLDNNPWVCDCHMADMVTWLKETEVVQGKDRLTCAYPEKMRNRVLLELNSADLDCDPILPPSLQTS

B1: L3D5-C (antibody, V domains shown)
VH: GVQLQQSGPELVKPGASVKISCKASGYTFTDFYMNWVKQSHGKSLEWIGDINPNNGVTTYNQKFKDKATLTVDKSSSTAYMELRSLTSEDSAVYYCATGAIHYGYDGYFDVWGAGTTVTVSS
VL: DIVMTQSPATLSVTPGDRVSLSCRASQSISDYLHWYQQKSHESPRLLIKYASQSISGIPSRFSGSGSGSDFTLSINSVEPEDVGVYYCQNGHSFPLTFGAGTKLELK
notes: Mouse VH and VL fused to human IgG1 heavy and kappa light constant regions; also called chimeric version of L3D5
B2: L1C7-C (antibody, V domains shown)
VH: EFQLQQSGPEVVKPGASVKISCKASGYSFTVYNMNWVKQSNGKSLDWIGVINPNYGTVTYNQKFKGKATLTVDQSSSTAYMQLNSLSSEDSAVYYCATTATWGQGTTLTVSS
VL: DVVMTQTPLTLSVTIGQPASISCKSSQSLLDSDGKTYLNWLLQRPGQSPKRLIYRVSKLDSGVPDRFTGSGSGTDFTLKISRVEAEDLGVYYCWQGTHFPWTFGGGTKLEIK
notes: Mouse VH and VL fused to human IgG1 heavy and kappa light constant regions; also called chimeric version of L1C7
B3: L1D8-CR11-C (antibody, V domains shown)
VH: QVQLQQSGAELMKPGASLKLSCKATGYTFTGYWIEWVKQRPGHGLEWIGEILPGRSSTNYNERFKGKAIFTADTSSNTAYMQLSSLTTEDSAIYYCARGRRDFDYWGQGTTITVSS
VL: SIVMTQTPKFLPVSAGDRVTMTCKASQSVGNNVAWYQQKPGQSPKVLIYDASNRYTGVPDRFTGSGSGTDFTFTISSVQVEDLAVYFCQQYYSSPPTFGAGTKLELK
notes: Mouse VH and VL fused to human IgG1 heavy and kappa light constant regions; also called chimeric version of L1D8-CR11; LID8-CR11
B4: L1D8-CR21-C (antibody, V domains shown)
VH: B3 VH with Y32S
VL: B3 VL
notes: Mouse VH and VL fused to human IgG1 heavy and kappa light constant regions; also called chimeric version of L1D8-CR21; LID8-CR21
B5: L2B11-C (antibody, V domains shown)
VH: EVKLVESEGGLVQPGSSMKLSCTASGFTFSDYYMAWVRQVPEKGLEWVGNINYDGSRTYYLDSLKSRFIISRDNGKNILYLQMSSLKSEDTATYYCAREGDNYGNSHYAMDYWGQGTSVTVSS
VL: DVLMTQTPLSLPVSLGDQASISCRSSQSFVHSNGNTYLEWYLQKPGQSPKLLIYKVSNRFSGVPDRFTGSGSGTDFTLKISRVEAEDLGVYYCFQGSHVPLTFGAGTRLELK
notes: Mouse VH and VL fused to human IgG1 heavy and kappa light constant regions; also called chimeric version of L2B11
B6: L1H7-C (antibody, V domains shown)
VH: QVQLQQSGPELVKPGASVKISCKASGYAFSSSWMNWVKQRPGKGLEWIGRIYPGNGNTNYNGKFKGKATLTADKSSSTAYMQLNSLTSEDSAVYFCASRFAYWGQGTLVAVSA
VL: DIVLTQSPASLAVSLGQRATISCRASKSVSTSGYSYMHWYQQKPGQPPKLLIYLASNLESGVPARFSGSGSGTDFTLNIHPVEEEDAATYYCQHSRELRTFGGGTKLEIK
notes: Mouse VH and VL fused to human IgG1 heavy and kappa light constant regions; also called chimeric version of L1H7
B7: S3C7-C (antibody, V domains shown)
VH: EVKLVESGGGLVNTGGSLKLSCAASGFNFSHYYMYWVRQTPEKRLEWVAYIGNSGGSTYNPDTVKGRFTISRDNAKNTLYLQMSRLKSEDTAIYYCARQNYYSGSFYFDSWGQGTTITVSS
VL: NIVLTQSPTSMSMSVGERVTLSCKASENVGTYVSWYQQKPEQSPKLLIYGKSNRYTGVPDRFTGSGSAPDFTLTISSVQAEDLADYYCGQSYSFPFTFGTGTKLEIK
notes: Mouse VH and VL fused to human IgG1 heavy and kappa light constant regions; also called chimeric version of S3C7
B8: L1F2-C (antibody, V domains shown)
VH: QVHLQQSGAELVRPGTSVKVSCKASGYAFTNYVIEWVKQRPGQGLEWIGVINPGSGGTNYNENFKGKATLTADKSSSTAYMQLSSLTSEDSAVYFCARGTVELYAMDYWGQGTSVTVSS
VL: DIQMTQTTSSLSASLGDRVTISCRASQDISYYLNWYQQKPDGTVKLLISYTSRLHSGVPSRFSGSGSGTDYSLTISNLEQEDIATYFCQQDIKHPYTFGGGTELEIK
notes: Mouse VH and VL fused to human IgG1 heavy and kappa light constant regions; also called chimeric version of L1F2
B9: S2F4-C (antibody, V domains shown)
VH: EVQLVESGGGLVKPGGSLKLSCAASGFTFSDYGMHWVRQAPEKGLEWIAYISFGSSTIYYADTVKGRFTISRDNAKNTLFLQMTSLRSEDTAMYYCARTHGYYRSWFAYWGQGTLVTVSA
VL: DIVLTQSPASLAVSLGQRATISCRASQSVSTSSYSYMNWYQQKPGQPPKLLIKYASNLESGVPARFSGSGSGTDFTLNIHPVEEEDTATYYCQHSWEIPLTFGAGTKLELK
notes: Mouse VH and VL fused to human IgG1 heavy and kappa light constant regions; also called chimeric version of S2F4
B10: L3F10-C (antibody, V domains shown)
VH: EVKLVESGGGLVNTGGSLKLSCAASGFTFSDYFMYWVRQTPDKRLEWVAYISNSGGNTYYPDTVKGRFTISRDNAKNTLYLQMSRLKSEDTAMYFCTRPRPYGGYYAGIYYAMDYWGQGTSVTVSS
VL: DIQMTQTTSSLSASLGDRVTISCRASQDISNYLNWYQQKPDGTVKLLIYYTSRLHSGVPSRFSGSGSGTDYSLTISNLEPEDIATYYCQQYSKLPLTFGAGTKLELK
notes: Mouse VH and VL fused to the constant regions of human IgG1 heavy chain and kappa light chain; also called chimeric version of L3F10
B11: L3E1-C (antibody, V domains shown)
VH: QVQLQQFGAELVKPGAAVKMSCKASGYTFTSYWITWVKQRPGQGLDWIGDIYPGGGSTNYHEKFKSKATLTVDTSSSTAYMQLSSLTSEDSAVYYCARGLRDFDYWGQGTTITVSS
VL: B10 VL with T8A, D28H, S30N, Y50S, Y71F, L96R, A100G, L106I
notes: Mouse VH and VL fused to human IgG1 heavy and kappa light constant regions; also called chimeric version of L3E1

biological target: T1, human 5T4 (32-355) tagged with poly-his …; assay: ELISA, 5T4-His coated on the plate
Text: FIGS. 1A-IC show the binding of purified chimeric anti-5T4 mAbs (VH and VL regions of mouse mAb fused to the constant regions of human IgG1 heavy chain and kappa light chain, respectively) to immobilized recombinant 5T4 in an ELISA assay. The antigen was human 5T4 (32-355) tagged with poly-his at the C-terminus (ACROBiosystems, CAT #TPG-H52E5). L3F10-C, the chimeric version of L3F10; the same naming rule is used for the rest of the antibodies. Isotype Control (IgG1), a negative control antibody.
Purified chimeric mAbs were tested in an ELISA assay for their ability to bind to immobilized 5T4. Recombinant human 5T4 (ACROBiosystems, CAT #TPG-H52E5) in PBS was coated onto a 96-well plate (Corning, CAT #3361) at 4° C. overnight. The next day, plates were blocked using 5% BSA in TBST for 1 hour at room temperature and washed using TBST. Antibody samples at various concentrations in 5% BSA in TBST were added to the wells and incubated for 1 hour at room temperature. Plates were washed with TBST and bound antibody was labeled using mouse anti-human IgG Fc HRP (Thermo, CAT #H10007) for 1 hour at room temperature. Plates were washed again using TBST, and then ELISAs were developed using 1 Step Ultra TMB detection reagent (Thermo, CAT #34028) for 4 minutes before being quenched with ELISA stop solution (Thermo. CAT #SS04). Plates were quantified by measuring absorbance at 450 nm by plate reader.

Binding result, binds:
B1, B2, B3, B4, B5, B6, B7, B8, B9, B10, B11
